Legend:
[1] = target: Glyceraldehyde-3-phosphate dehydrogenase (rabbit muscle GAPDH) (rabbit) (UniProt P46406)
[2] = target: GAPDH (UniProt P04406); conditions: cited from earlier work
UniProt P04406, sequence (P04406 2-335): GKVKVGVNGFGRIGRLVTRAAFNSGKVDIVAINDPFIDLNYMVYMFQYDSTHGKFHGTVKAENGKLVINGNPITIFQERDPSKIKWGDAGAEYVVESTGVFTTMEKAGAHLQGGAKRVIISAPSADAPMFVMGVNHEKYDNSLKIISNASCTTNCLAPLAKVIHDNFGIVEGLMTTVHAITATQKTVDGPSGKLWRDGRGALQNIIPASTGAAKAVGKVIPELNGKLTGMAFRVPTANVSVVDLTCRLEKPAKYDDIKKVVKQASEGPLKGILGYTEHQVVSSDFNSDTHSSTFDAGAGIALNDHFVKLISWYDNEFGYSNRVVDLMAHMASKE

UniProt P46406, sequence (P46406 whole entry): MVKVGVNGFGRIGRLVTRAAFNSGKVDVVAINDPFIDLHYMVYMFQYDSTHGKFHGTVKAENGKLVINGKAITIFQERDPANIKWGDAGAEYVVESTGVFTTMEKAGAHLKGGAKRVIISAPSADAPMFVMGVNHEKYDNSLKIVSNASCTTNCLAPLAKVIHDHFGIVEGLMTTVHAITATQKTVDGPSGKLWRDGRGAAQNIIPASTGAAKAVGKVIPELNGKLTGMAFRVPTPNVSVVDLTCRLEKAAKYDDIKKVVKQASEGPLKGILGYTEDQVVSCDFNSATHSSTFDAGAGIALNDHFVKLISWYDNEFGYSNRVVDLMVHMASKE
Lactoferrin, sequence (P02788 20-710): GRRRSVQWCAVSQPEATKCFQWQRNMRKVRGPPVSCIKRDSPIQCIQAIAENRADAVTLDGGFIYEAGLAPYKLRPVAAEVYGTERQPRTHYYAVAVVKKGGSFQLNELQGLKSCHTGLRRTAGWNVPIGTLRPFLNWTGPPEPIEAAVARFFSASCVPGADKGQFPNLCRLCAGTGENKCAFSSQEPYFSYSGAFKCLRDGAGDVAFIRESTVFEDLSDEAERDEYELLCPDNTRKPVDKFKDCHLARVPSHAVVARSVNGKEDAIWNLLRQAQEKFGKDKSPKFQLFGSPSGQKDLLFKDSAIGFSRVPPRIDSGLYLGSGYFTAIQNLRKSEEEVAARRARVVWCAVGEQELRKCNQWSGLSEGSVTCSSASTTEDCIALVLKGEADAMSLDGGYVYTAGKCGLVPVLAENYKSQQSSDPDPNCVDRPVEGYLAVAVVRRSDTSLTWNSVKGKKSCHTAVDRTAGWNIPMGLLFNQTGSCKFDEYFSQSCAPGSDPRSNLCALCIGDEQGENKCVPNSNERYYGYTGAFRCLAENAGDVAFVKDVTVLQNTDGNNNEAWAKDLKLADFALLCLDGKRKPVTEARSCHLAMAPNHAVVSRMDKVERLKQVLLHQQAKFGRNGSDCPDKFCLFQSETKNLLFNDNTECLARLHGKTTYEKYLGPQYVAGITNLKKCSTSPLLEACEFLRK

Fold change in Lactoferrin MFI of cells internalizing both GAPDH and Lf vs. only lactoferrin +ve cells; CHO [1]	Fold change in Lactoferrin MFI of cells internalizing both GAPDH and Lf vs. only lactoferrin +ve cells; CHO-TRVb [1]	Fold change in Lactoferrin MFI of cells internalizing both GAPDH and Lf vs. only lactoferrin +ve cells; Human Lymphocytes [1]	Fold change in Lactoferrin MFI of cells internalizing both GAPDH and Lf vs. only lactoferrin +ve cells; J774 [1]	Fold change in Lactoferrin MFI of cells internalizing both GAPDH and Lf vs. only lactoferrin +ve cells; K562 [1]	Fold change in Lactoferrin MFI of cells internalizing both GAPDH and Lf vs. only lactoferrin +ve cells; Mouse Bone Marrow cells [1]	Fold change in Lactoferrin MFI of cells internalizing both GAPDH and Lf vs. only lactoferrin +ve cells; Mouse Enterocytes [1]	Fold change in Lactoferrin MFI of cells internalizing both GAPDH and Lf vs. only lactoferrin +ve cells; Mouse Hepatocytes [1]	Fold change in Lactoferrin MFI of cells internalizing both GAPDH and Lf vs. only lactoferrin +ve cells; Mouse Peritoneal Macrophages (Ex vivo) [1]	Fold change in Lactoferrin MFI of cells internalizing both GAPDH and Lf vs. only lactoferrin +ve cells; Mouse Spleen Macrophages [1]	Fold change in Lactoferrin MFI of cells internalizing both GAPDH and Lf vs. only lactoferrin +ve cells; Mouse peritoneum cells (In-Vivo) [1]	Fold change in Lactoferrin MFI of cells internalizing both GAPDH and Lf vs. only lactoferrin +ve cells; Neuro-2A (N2A) [1]	Fold change in Lactoferrin MFI of cells internalizing both GAPDH and Lf vs. only lactoferrin +ve cells; PMA activated THP1 [1]	Substance	Kd [2]
4.95 fold	2.83 fold	1.27 fold	2.62 fold	1.6 fold	3.7 fold	5.52 fold	4.28 fold	1.17 fold	2.1 fold	6.1 fold	4.02 fold	2.07 fold	human lactoferrin (natural protein)	
													Lactoferrin (from UniProt P02788)	43.8 nM

Reference: paper PMC4682080
